Results: patent US20070275001A1, “Rational Design and Engineering of Proteins and Peptides for Immunomodulation” (Arizona Board of Regents, priority 2004, published 2007)
No end group written: not given here.

How the values were obtained:
[1] = Chemical denaturation with guanidinium hydrochloride monitored by CD at 222 nm (thermodynamic stability); type: physicochemical
Experimental: The thermodynamic stability of the proteins was assessed by chemical denaturation studies, in which the CD signal at 222 nm was monitored at increasing concentrations of denaturant agent, guanidinium hydrochloride (FIG. 7B). A 1 cm path length rectangular quartz cell was used. The cell holder was temperature controlled at 25° C. The buffer was 10 mM potassium phosphate, pH 7.0. The bandwidth was 1.00 nm. At each GdnHCl concentration, cell chamber was equilibrated for 6 minutes, then data were collected. The curve is described by the equation: ΔGobs=ΔGH2O+m[GdnHCl] in which ΔGobs is the free energy for the two state unfolding equilibrium observed at a given concentration of GdnHCl, ΔGH2O is the free energy of denaturation extrapolated to zero GdnHCl concentration, m is a constant that provide a measure of the cooperativity of the process.
The resulting sigmoidal curve was analyzed to extrapolate the free energy of folding, ΔG, estimated to be −4.2 Kcal/mol; the corresponding ΔG for 1LQ7 is −4.6 Kcal/mol.

[2] = corresponding value for the original scaffold protein; cited from earlier work
macrophages [3] = experiment: Quantification of phagocytosis of IgG-opsonized FITC latex beads by flow cytometry (in vitro macrophage activation test); type: cell-based; details: cells stimulated overnight, then 30' with FITC beads conjugated with IgG
Experimental: The present invention discloses a method for rapid, quantitative in vitro testing for macrophage activation. Phagocytosis is a cytoskeleton-dependent process of engulfment of large particles. Phagocytes use various surface receptors to bind and internalize the foreign particles for processing the pathogens in lysosomes (phagolysosomes) for presentation of antigens to the immune system. The effects of Gc-MAF with both positive and negative controls of phagocytosis are determined. As positive controls, macrophages are also stimulated with Beta-1,3 glucans, a well-known immune stimulator, for functional comparison. Specifically, curdlan, linear (1,3)-Beta-D-glucans are used. […] Once the cells are suspended in the culture medium, quantification of phagocytosis is accomplished by flow cytometry. One unique feature of flow cytometry is that it measures fluorescence per cell or particle. FIG. 8 illustrates the quantification of phagocytosis by flow cytometry. […] A FACSCalibur (FACS=Fluorescence Activated Cell Sorter) system (Becton Dickinson) equipped with an air-cooled argon ion laser (488 nm, 15 mW output) is used for this study. Forward light scatter (FSC) and 90° light scatter (SSC) were measured at 488 nm and fluorescence emissions (FL parameters) were collected using the FSC as the triggering signal. Fluorescence data was reported by CellQuest software (Becton Dickinson). […]

macrophages [4] = details: cited from earlier work

## MM1: 69 residue three-helix bundle peptide: scaffold 1LQ7 with both loops replaced by Gc-MAF Domain III loop; non-glycosylated analog, negative control (chain 1 Ac-GSRVKALEEKVKALEEKVKALGNAT; chain 2 PTELAKKKWEELKKKIEELGNATPT; chain 3 EVKKVEEEVKKLEEEIKKL-NH2; not fully specified (N-terminus); also: helices are one chain joined by the loops, non-glycosylated)
[1]; GdnHCl denaturation, 25° C., 10 mM potassium phosphate, pH 7.0, extrapolated to zero GdnHCl
  free energy of folding, ΔG: -4.2 kcal/mol
[1]; difference from 1LQ7
  free energy of folding relative to that of the original scaffold protein, 1LQ7: ≤ 30%
[1]; helical content at room temperature and free energy of folding independent of concentration, corroborated by equilibrium sedimentation
  aggregation state: monomeric

## 1LQ7: stable designed three-helix bundle scaffold from the Protein Data Bank, originally designed at the University of Pennsylvania (chain 1 GSRVKALEEKVKALEEKVKALGGGG; chain 2 RIEELKKKWEELKKKIEELGGGG; chain 3 EVKKVEEEVKKLEEEIKKL; not fully specified (N-terminus); also: helices are one chain joined by GGGG loops)
[2]
  free energy of folding, ΔG (scaffold): -4.6 kcal/mol

B1: Gc-MAF: serum glycoprotein macrophage activating factor, formed from Vitamin D Binding Protein by post-translation modifications (protein, UniProt P02774 17-474, looked up)
Vitamin D-binding protein: LERGRDYEKNKVCKEFSHLGKEDFTSLSLVLYSRKFPSGTFEQVSQLVKEVVSLTEACCAEGADPDCYDTRTSALSAKSCESNSPFPVHPGTAECCTKEGLERKLCMAALKHQPQEFPTYVEPTNDEICEAFRKDPKEYANQFMWEYSTNYGQAPLSLLVSYTKSYLSMVGSCCTSASPTVCFLKERLQLKHLSLLTTLSNRVCSQYAAYGEKKSRLSNLIKLAQKVPTADLEDVLPLAEDITNILSKCCESASEDCMAKELPEHTVKLCDNLSTKNSKFEDCCQEKTAMDVFVCTYFMPAAQLPELPDVELPTNKDVCDPGNTKVMDKYTFELSRRTHLPEVFLSKVLEPTLKSLGECCDVEDSTTCFNAKGPLLKKELSSFIDKGQELCADYSENTFTEYKKKLAERLKAKLPDATPTELAKLVNKHSDFASNCCSINSPPLYCDSEIDAELKNIL
modifications: deglycosylated macrophage activating form
Macrophages [3]; FL1 channel, non-stimulated control 543±149
  mean fluorescence intensity: 724±155
Macrophages [3]; non-stimulated control 43.6±10.3%
  percentage of cells positive to phagocytosis (M2): 57.5±6.6%
Macrophages [4]; enzymatically activated Gc-MAF given to Ehrlich ascite tumor-bearing mice
  time to macrophage activation: less than 6 hr
Macrophages [4]; injection of Gc-MAF
  time to substantially increased initiation of antibody production: ≤ 48 h
